Laboratory results as given in publication PMC4381594, “GCN5 inhibits XBP-1S-mediated transcription by antagonizing PCAF action” (Oncotarget, 2014).

How the values were obtained:
[1] = biological target: T1, XBP-1S, the active isoform of X-box binding protein 1 (human, UniProt P17861-2 1-376); assay: cell-based or functional assay
T1 sequence (looked up): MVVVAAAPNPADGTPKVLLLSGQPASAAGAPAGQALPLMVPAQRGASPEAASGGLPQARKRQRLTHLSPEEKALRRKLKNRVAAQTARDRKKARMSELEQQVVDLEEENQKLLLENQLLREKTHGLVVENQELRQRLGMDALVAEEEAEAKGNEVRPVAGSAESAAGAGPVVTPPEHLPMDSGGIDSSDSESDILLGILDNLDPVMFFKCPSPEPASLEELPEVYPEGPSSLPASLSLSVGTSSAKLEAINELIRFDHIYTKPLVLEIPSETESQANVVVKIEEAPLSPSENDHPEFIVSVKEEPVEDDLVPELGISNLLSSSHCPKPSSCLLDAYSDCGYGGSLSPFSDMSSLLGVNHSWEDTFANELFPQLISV

[2] = biological target: T1, XBP-1S, the active isoform of X-box …; assay: co-IP; 293T cells co-transfected with PCAF and XBP-1S vectors with or without a GCN5 plasmid; IP with anti-XBP-1 antibody, immunoblot with anti-PCAF or anti-XBP-1; bands quantified by densitometry, PCAF normalised to precipitated XBP-1S; conditions: partners not purified

B1: general control nonderepressible 5 (GCN5) (enzyme, human, UniProt Q92830 1-837, looked up)
chain: MAEPSQAPTPAPAAQPRPLQSPAPAPTPTPAPSPASAPIPTPTPAPAPAPAAAPAGSTGTGGPGVGSGGAGSGGDPARPGLSQQQRASQRKAQVRGLPRAKKLEKLGVFSACKANETCKCNGWKNPKPPTAPRMDLQQPAANLSELCRSCEHPLADHVSHLENVSEDEINRLLGMVVDVENLFMSVHKEEDTDTKQVYFYLFKLLRKCILQMTRPVVEGSLGSPPFEKPNIEQGVLNFVQYKFSHLAPRERQTMFELSKMFLLCLNYWKLETPAQFRQRSQAEDVATYKVNYTRWLCYCHVPQSCDSLPRYETTHVFGRSLLRSIFTVTRRQLLEKFRVEKDKLVPEKRTLILTHFPKFLSMLEEEIYGANSPIWESGFTMPPSEGTQLVPRPASVSAAVVPSTPIFSPSMGGGSNSSLSLDSAGAEPMPGEKRTLPENLTLEDAKRLRVMGDIPMELVNEVMLTITDPAAMLGPETSLLSANAARDETARLEERRGIIEFHVIGNSLTPKANRRVLLWLVGLQNVFSHQLPRMPKEYIARLVFDPKHKTLALIKDGRVIGGICFRMFPTQGFTEIVFCAVTSNEQVKGYGTHLMNHLKEYHIKHNILYFLTYADEYAIGYFKKQGFSKDIKVPKSRYLGYIKDYEGATLMECELNPRIPYTELSHIIKKQKEIIKKLIERKQAQIRKVYPGLSCFKEGVRQIPVESVPGIRETGWKPLGKEKGKELKDPDQLYTTLKNLLAQIKSHPSAWPFMEPVKKSEAPDYYEVIRFPIDLKTMTERLRSRYYVTRKLFVADLQRVIANCREYNPPDSEYCRCASALEKFFYFKLKEGGLIDK
notes: No tag is named for this plasmid; precipitated and detected with anti-GCN5 (ab71965); also called GCN5 WT; source: 293T, transfected, in lysate
fold decrease in XBP-1S-mediated luciferase expression from the 5×UPRE-Luc reporter in HEK293 cells with GCN5 overexpressed [1]: > 5 fold
fold decrease of PCAF-XBP-1S binding with GCN5 overexpressed [2]: 4 fold
